{"source": "paper PMC4587294", "about": "(Nanomedicine, 2015)", "proteins": {"B1": {"name": "T2i88-8-pf self-assembling protein nanoparticle (SAPN) chain (designed binder)", "chain": "MGHHHHHHASWKWDGGLVPRGSWQTWNAKWDQWSNDWNAWRSDWQAWKDDWAYWTLTWKYGELYSKLAELERRLEELAKFVAAWTLKAAAVDLELAALRRRLEELARGGSGANANPNANPNANPNANP"}}, "key": {"STEM mass measurement": {"target": "the molecule itself", "assay": "STEM mass measurement"}, "AUC": {"target": "the molecule itself", "assay": "AUC"}}, "note": "Where “and” joins values, the source holds several entries; their conditions need not be identical. Identical values can stand only once.", "data": [{"protein": "B1", "values": [{"measurement": "stoichiometry N", "setting": "STEM mass measurement", "result": "195 peptide chains per nanoparticle and ~180 peptide chains per particle"}, {"measurement": "stoichiometry N", "setting": "AUC", "result": "~180", "unit": "chains per nanoparticle"}]}]}
